# Experimental data taken from US20060239990A1, “Protein Arginine N-Methyltransferase 2 (PRMT-2)” (priority 2003, published 2006).
# B1: PRMT2: human PRMT-2 polypeptide, SEQ ID NO:2, expressed from pVR1012 vector with HA-tag (protein, listed as Homo sapiens)
# chain: MATSGDCPRSESQGEEPAECSEAGLLQEGVQPEEFVAIADYAATDETQLSFLRGEKILILRQTTADWWWGERAGCCGYIPANHVGKHVDEYDPEDTWQDEEYFGSYGTLKLHLEMLADQPRTTKYHSVILQNKESLTDKVILDVGCGTGIISLFCAHYARPRAVYAVEASEMAQHTGQLVLQNGFADIITVYQQKVEDVVLPEKVDVLVSEWMGTCLLFEFMIESILYARDAWLKEDGVIWPTMAALHLVPCSADKDYRSKVLFWDNAYEFNLSALKSLAVKEFFSKPKYNHILKPEDCLSEPCTILQLDMRTVQISDLETLRGELRFDIRKAGTLHGFTAWFSVHFQSLQEGQPPQVLSTGPFHPTTHWKQTLFMMDDPVPVHTGDVVTGSVVLQRNPVWRRHMSVALSWAVTSRQDPTSQKVGEKVFPIWR
# modifications: HA tag
# Key:
# MHC Class I = test: Flow cytometry of endogenous MHC Class I in 293T cells; assay type: cell-based, human; conditions: 48 hrs after transfection
# Experimental: 293 cells were transfected with 1 μg of the indicated reporter plasmids and 5 μg of either PRMT2-A or pVR1012 plasmids. Cells were harvested 36 hours post-transfection, and CAT assays were performed. Data shown are the mean (±SEM)-fold inhibition, in the presence of PRMT2-A, over a vector control of 3 independent experiments. […] 293T human embryonic kidney cells were transfected with HIV-luciferase reporter (WT) or ΔκB-luciferase reporter (ΔκB) and PRMT2 or control vector plasmid. 24 hrs after transfection, cells were treated with vehicle (left panel) or with TNF-α (20 ng/ml; middle panel) or PMA (10 ng/ml; right panel) as indicated, and luciferase activity was measured 48 hrs post transfection. […] 293T cells were transfected with HA-PRMT2 or HA-PRMT2-N. Transfected cells were detached after 48 hrs and analyzed by flow cytometry for MHC Class I and CD9 in HA-positive cells in PRMT2 (FIG. 2C) or PRMT2-N (FIG. 2D) transfected cells. […] 293T cells were transfected with plasmids as indicated where IKK2 or p65 was added as shown, and the κB luciferase reporter gene was used to monitor NF-κB activity 48 hrs after transfection. Values are expressed as fold stimulation compared to the control vector.
# IκB-α [1] = test: Co-immunoprecipitation with endogenous IκB-α in 293 cells; assay type: binding, human; conditions: HA-tagged constructs in 293 cells
# Sequence of IκB-α (P25963 whole entry, the tested form may be a part): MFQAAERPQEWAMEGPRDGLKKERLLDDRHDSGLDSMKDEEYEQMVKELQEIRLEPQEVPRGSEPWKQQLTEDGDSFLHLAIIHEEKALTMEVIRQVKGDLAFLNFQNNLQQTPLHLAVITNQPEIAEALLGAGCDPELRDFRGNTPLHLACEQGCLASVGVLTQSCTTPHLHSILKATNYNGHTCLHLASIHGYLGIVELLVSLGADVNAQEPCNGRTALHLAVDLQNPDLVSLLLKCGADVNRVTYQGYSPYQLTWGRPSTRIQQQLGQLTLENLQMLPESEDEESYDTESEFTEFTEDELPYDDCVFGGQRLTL
# Text: A polyclonal antibody to recombinant PRMT2 was used to examine the association between endogenous PRMT2 and IκB-α in vivo. […] The domain of IκB-α required for association with PRMT2 was mapped using in vivo immunoprecipitation assays where HA-tagged PRMT2 was coexpressed with truncation mutants of His-tagged IκB-α (FIG. 5B) in 293 cells. The ankyrin domain was both necessary and sufficient for this association (FIG. 5D, lanes 1 and 2). The domain of PRMT2 that interacted with endogenous IκB-α was mapped by immunoprecipitation following expression HA-tagged PRMT2 truncation mutants (FIG. 5C). […] When the ratios of PRMT2 or PRMT2-A binding to IκB-α were compared, both interacted with IκB-α with similar affinity.
# p50/p65 complex = test: NF-κB DNA binding assay (EMSA); assay type: biochemical, human; conditions: 293 cells cotransfected with p50 and p65 expression vectors
# Experimental: DNA binding assay. Electrophoretic mobility shift assays (EMSAs) were conducted on 10 μg of nuclear extract protein from 293 cells transiently transfected with pRSV p50/p65 expression constructs and pVR1012 PRMT-2-A/PRMT-2-N expression constructs. A modified Dignam procedure (Dignam et al. Nucleic Acids Res. 11, 1475-1489 (1983)) was used to prepare nuclear extracts from 293 cells. Perkins, N. D. et al. Science 275, 523-527 (1997). NF-KB DNA binding was assayed using a double-stranded 32P-labeled κB probe (Geneka Biotechnology). DNA binding assays were performed as described previously. Perkins et al. Science 275, 523-527 (1997). Supershifting was done using NF-κB p65 (C-20) and NF-κB p50 (H-119) (Santa Cruz). GST-PRMT-2-A fusion proteins were expressed in BL21 (DE3) cells and extracts were prepared as described previously. Smith, D. B. & Johnson, K. S. Gene 67, 31-40 (1988).
# IκB-α [2] = test: Immunoblot of nuclear IκB-α in transfected 293 cells; assay type: cell-based, human; conditions: transfected cells stimulated with TNF-α, vs PRMT2-N
# Experimental: Small-scale preparation of nuclear extracts. A modified Dignam procedure (Dignam et al., Nucleic Acids Res. 11: 1475-89 (1983)) was used to prepare nuclear extracts from 293 cells. Cells were harvested, washed with PBS, resuspended in 1 ml Dignam buffer A, and transferred to pre-chilled microfuge tubes, which were spun at 1000 rpm for 1 minute. The supernatant was aspirated thoroughly, and pellets were carefully resuspended to avoid frothing, in 60 μl modified Dignam buffer A containing 0.1% Nonidet P-40 (NP40). Samples were incubated at 4° C. for approximately 10 minutes, and microcentrifuged for 10 minutes at 4° C. The cytoplasmic extract supernatant was diluted in 3 volumes of modified Dignam buffer D and frozen quickly. The pellets were resuspended in 40 μl Dignam buffer C. Samples were incubated for 15 minutes at 4° C. on a tumbler, and centrifuged again for 5 minutes at 4° C. The supernatant was diluted with 6 volumes of modified Dignam buffer D. Samples were frozen quickly in aliquots and stored at −70° C.
# Western Blotting. Proteins resolved by SDS-polyacrylamide gel electrophoresis (PAGE) were transferred to polyvinylidene difluoride (PVDF) membranes. […]
molecule,measurement,setting,value
B1,endogenous MHC Class I cell surface expression,MHC Class I,decreased endogenous MHC Class I cell surface expression
same,association with endogenous IκB-α,IκB-α [1],interacted
same,NF-κB DNA binding in nuclear extracts of transfected cells,p50/p65 complex,inhibited DNA binding of the p50/p65 complex in a dose-dependent manner
same,increase in nuclear IκB-α protein levels over the mutant control,IκB-α [2],~8 fold
